Key:
Assay in all cases: acetoin formation, Voges-Proskauer test, Michaelis-Menten fit
Conditions in all cases: 100 mM phosphate pH 8.0, 0.1 mM TPP, 1 mM Mg2+, 2-600 mM acetaldehyde
formolase (FLS) [1] = target: T1, formolase (FLS) (Pseudomonas fluorescens, UniProt Q9F4L3, A28I/W89R/L90T/R188H/A394G/G419N/A480W); assay type: biochemical
T1 construct: gene bznB; computationally designed formolase derived from benzaldehyde lyase; pET28a, E. coli BL21(DE3), Ni-NTA His-tag purified
T1 sequence (Q9F4L3 1-563 A28I/W89R/L90T/R188H/A394G/G419N/A480W): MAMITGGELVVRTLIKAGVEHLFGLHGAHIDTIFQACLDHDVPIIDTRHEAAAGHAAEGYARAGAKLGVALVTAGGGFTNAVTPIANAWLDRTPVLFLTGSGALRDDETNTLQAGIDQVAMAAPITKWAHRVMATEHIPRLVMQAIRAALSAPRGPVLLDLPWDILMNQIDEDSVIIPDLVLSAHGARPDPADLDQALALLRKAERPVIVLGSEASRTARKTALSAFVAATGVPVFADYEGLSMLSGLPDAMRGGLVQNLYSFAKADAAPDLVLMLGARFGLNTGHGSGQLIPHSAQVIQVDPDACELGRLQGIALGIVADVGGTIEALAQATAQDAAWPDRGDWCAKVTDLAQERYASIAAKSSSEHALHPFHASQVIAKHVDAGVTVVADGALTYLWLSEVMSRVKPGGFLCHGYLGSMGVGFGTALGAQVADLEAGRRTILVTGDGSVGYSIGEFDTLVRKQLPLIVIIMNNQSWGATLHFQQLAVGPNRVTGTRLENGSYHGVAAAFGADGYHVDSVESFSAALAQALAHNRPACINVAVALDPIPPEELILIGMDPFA
Source text: (§1) acetoin formation, Voges-Proskauer test, Michaelis-Menten fit on formolase (FLS)

formolase (FLS) [2] = target: T2, formolase (FLS) (Pseudomonas fluorescens, UniProt Q9F4L3, A28I/W89R/L90T/R188H/A394G/G419N/A480W/L482E); assay type: biochemical
T2 construct: gene bznB; computationally designed formolase derived from benzaldehyde lyase; pET28a, E. coli BL21(DE3), Ni-NTA His-tag purified
T2 sequence (Q9F4L3 1-563 A28I/W89R/L90T/R188H/A394G/G419N/A480W/L482E): T1 sequence (Q9F4L3 1-563 A28I/W89R/L90T/R188H/A394G/G419N/A480W)
Source text: as §1

CC=O = test system: T3, CC=O; assay type: biochemical, Pseudomonas fluorescens
T3 construct: computationally designed formolase derived from benzaldehyde lyase; pET28a, E. coli BL21(DE3), Ni-NTA His-tag purified
Source text: as §1

Molecule | Km (formolase (FLS) [1]) [mM] | Km (formolase (FLS) [2]) [mM] | Km (CC=O) [mM] | kcat (CC=O) [s⁻¹] | kcat/Km (CC=O) [M⁻¹ s⁻¹]
CC=O [acetaldehyde] | 58.5 ± 2.32 | 50.9 ± 3.22 |  |  | 
formolase (FLS) (Pseudomonas fluorescens; A28I/A394G/A480W/F484A/G419N/L90T/R188H/W89R) |  |  | 53.28 ± 2.52 | 1.74 ± 0.12 | 32.6
formolase (FLS) (Pseudomonas fluorescens; A28V/A394G/A480W/G419N/L90T/R188H/W89R) |  |  | 81.95 ± 3.61 | 3.33 ± 0.21 | 40.6

Reference: publication PMC11357561, “Efficient 2,3-Butanediol Production from Ethanol by a Modified Four-Enzyme Synthetic Biosystem” (Molecules, 2024)
